Measurements taken from paper PMC6318282, “Completion of the cytosolic post-chorismate phenylalanine biosynthetic pathway in plants” (Nature Communications, 2019).

B1: PhCM1 (Petunia x hybrida) (protein)
chain: QASATSLGLGNKNRVDETESYTLDGIRHSLIRQEDSIIFSLVERAQYCYNAETYDPDVFAMDGFHGSLVEYIVRETEKLHATVGRYKSPDEHPFFPKVLPEPVLPPMQYPKVLHPIADSININVKIWEMYFENLLPRLVKEGDDGNYGSTAVCDTICVQALSKRIHYGKFVAEAKYRASPEVYNAAIRAQDRNGLMDLLTYPAVEEAIKRRVEIKTRTYGQELHINGPENGGDPVYKIKPSLVAELYGDWIMPLTKEVQVQYLLRRLD
B2: PhADT3S (Petunia x hybrida) (protein)
chain: MHGAQLRVAYQGVPGAYSEAAAGKAYPKCEAIPCDQFEVAFQAVELWIADRAVLPIENSLGGSIHRNYDLLLRHRLHIVGEVQLPVHHCLLALPGVRKEYLTRVISHPQALAQCELTLTKLGLNVAREAVDDTAGAAEYIAANNLRDTAAIASSRAAELYGLDILEQGIQDDLSNVTRFVMLAREPIIPRTDRPFKTSIVFAHDKGTSVLFKVLSAFAFRNISLTKIESRPHRNRPIRLVDDANVGTAKHFEYMFYVDFEASMADVRAQNALAEVQEFTSFLRVLGSYPMDMTPWSPSRDA
notes: short isoform starting at second in-frame ATG (133 residues downstream of first Met), intact catalytic and ACT domains, about 33 kD, N-terminal 6xHis tag (pET-28a), E. coli, Ni-NTA
B3: PhCM2 (Petunia x hybrida) (protein)
chain: MACGDYDDKLSLDLIRDSLIRQEDTIIFNLIERIKFPINSTLYKKPSSWFPDFTGSLFQYLFQETEALQSKVGRYLSPEENPFFPDNLPASIVPPSKCPPVLHPVAESININEKILDVYLNQLLPLFCTEADEGNYATTAACDIQLLQAISRRIHYGKFVAEVKFRDCSDEYTPLILAQQDRDALMKLLTFEVVEEMVKKRVAKKAMIFGQEVTLVDNAKEVKCKVDPLLVSRLYDEWIMPLTKHVQVEYLLRRLDQNKLTSI
notes: coding region, N-terminal 6xHis tag (pET-28a), E. coli, Ni-NTA
B4: PhADT3L (Petunia x hybrida) (protein)
chain: AGAAAVNTGVVNTPASNNTAGHVGASRTDWQSSCAILASKVVSQQQDTEKSGGAGNITAVNGHKILNLDLLPVESNRAKPLTITDLSPAPMHGAQLRVAYQGVPGAYSEAAAGKAYPKCEAIPCDQFEVAFQAVELWIADRAVLPIENSLGGSIHRNYDLLLRHRLHIVGEVQLPVHHCLLALPGVRKEYLTRVISHPQALAQCELTLTKLGLNVAREAVDDTAGAAEYIAANNLRDTAAIASSRAAELYGLDILEQGIQDDLSNVTRFVMLAREPIIPRTDRPFKTSIVFAHDKGTSVLFKVLSAFAFRNISLTKIESRPHRNRPIRLVDDANVGTAKHFEYMFYVDFEASMADVRAQNALAEVQEFTSFLRVLGSYPMDMTPWSPSRDA

Key:
[1] = substrate: C=C(O[C@@H]1C=C(C(=O)O)C=C[C@H]1O)C(=O)O; experiment: purified protein; format: biochemical, Petunia x hybrida; settings: 20 mM Tris-HCl pH 8.0, 1 mM EDTA, 37 °C
[2] = substrate: O=C(O)C(=O)CC1(C(=O)O)C=CC(O)C=C1; experiment: purified protein; format: biochemical, Petunia x hybrida; settings: 20 mM Tris-HCl pH 8.0, 1 mM EDTA, 37 °C

Protein | Km [2] | Vmax [2] | other results
B1 |  |  | Km [1]: 174 ± 27 µM; Vmax [1]: 45.7 µmol/min/mg
B2 | 433 ± 73 µM | 0.113 µmol/min/mg | 
B3 |  |  | Km ([1]; reaction volume 225 μl): 8.6 ± 1.2 µM; Vmax ([1]; reaction volume 225 μl): 114 µmol/min/mg
B4 | 358 ± 32 µM | 0.125 µmol/min/mg | 
